The target of assay [1] is recombinant sponge (Eunapius subterraneus) developmentally regulated GTP-binding protein 1, His-tagged (Eunapius subterraneus).
Assay [2] concerns the target recombinant sponge (Eunapius subterraneus) DRG family regulatory protein 1, His-tagged (Eunapius subterraneus). Nature of the assay: SEC; Superdex 200 Increase 10/300 GL, 10 mM phosphate buffer, 140 mM NaCl, pH 7.4, 4 °C; column calibrated with standards; fractions analysed by SDS-PAGE and anti-His Western blot. (In general: In gel filtration, larger molecules generally elute earlier.)

The target of assay [3] is T1, recombinant human DRG family regulatory protein 1, His-tagged (human, UniProt Q8WU90 1-426).
T1 construct: human DFRP1 (LEREPO4/ZC3H15), cDNA from a commercially available product; also called HsaDFRP1; human DFRP1
T1 sequence (looked up): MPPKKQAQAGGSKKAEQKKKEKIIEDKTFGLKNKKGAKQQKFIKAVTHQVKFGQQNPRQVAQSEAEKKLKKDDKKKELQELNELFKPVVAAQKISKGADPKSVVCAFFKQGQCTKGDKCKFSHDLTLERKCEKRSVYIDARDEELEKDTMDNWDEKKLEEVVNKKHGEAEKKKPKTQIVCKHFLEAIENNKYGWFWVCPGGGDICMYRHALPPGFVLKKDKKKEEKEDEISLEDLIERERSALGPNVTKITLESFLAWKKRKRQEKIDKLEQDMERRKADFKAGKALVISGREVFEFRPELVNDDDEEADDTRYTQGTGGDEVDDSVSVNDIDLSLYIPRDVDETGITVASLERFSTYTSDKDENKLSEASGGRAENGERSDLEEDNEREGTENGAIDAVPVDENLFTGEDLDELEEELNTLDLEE
As to the kind of experiment: cross-linking; glutaraldehyde cross-linking of a mixture of DRG1 and DFRP1 (2 ug of each), or of DFRP1 alone, in PBS, 0.125-0.5% glutaraldehyde, 30 min, room temperature (25 °C); SDS-PAGE, Coomassie. The conditions noted are these: both partners purified.

recombinant sponge (Eunapius subterraneus) developmentally regulated GTP-binding protein 1, His-tagged (Eunapius subterraneus), sequence (main, as listed by the source): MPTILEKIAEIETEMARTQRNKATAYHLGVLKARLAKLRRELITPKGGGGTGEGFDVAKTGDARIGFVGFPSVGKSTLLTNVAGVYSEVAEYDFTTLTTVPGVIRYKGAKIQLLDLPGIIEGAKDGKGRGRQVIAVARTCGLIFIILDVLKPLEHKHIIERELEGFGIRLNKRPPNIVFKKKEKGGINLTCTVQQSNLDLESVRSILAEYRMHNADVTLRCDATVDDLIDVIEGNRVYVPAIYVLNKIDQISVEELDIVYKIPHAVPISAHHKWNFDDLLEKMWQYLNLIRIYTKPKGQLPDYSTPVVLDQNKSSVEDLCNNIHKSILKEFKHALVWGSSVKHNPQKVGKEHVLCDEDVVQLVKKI

For the molecule “recombinant sponge (Eunapius subterraneus) DRG family regulatory protein 1, His-tagged (natural protein)”, in assay [1], the GTPase activity of EsuDRG1 (GTPase-Glo luminescence assay) with equimolar EsuDFRP1, 1.2 uM each, against EsuDRG1 alone is 2.5 fold. For the same molecule, the stoichiometry N (in general, a count of units in the complex or per binding partner) in assay [2] worked out at 4.

B1: recombinant human developmentally regulated GTP-binding protein 1, His-tagged (natural protein, UniProt Q9Y295 1-367, looked up)
chain: MSSTLAKIAEIEAEMARTQKNKATAHHLGLLKARLAKLRRELITPKGGGGGGPGEGFDVAKTGDARIGFVGFPSVGKSTLLSNLAGVYSEVAAYEFTTLTTVPGVIRYKGAKIQLLDLPGIIEGAKDGKGRGRQVIAVARTCNLILIVLDVLKPLGHKKIIENELEGFGIRLNSKPPNIGFKKKDKGGINLTATCPQSELDAETVKSILAEYKIHNADVTLRSDATADDLIDVVEGNRVYIPCIYVLNKIDQISIEELDIIYKVPHCVPISAHHRWNFDDLLEKIWDYLKLVRIYTKPKGQLPDYTSPVVLPYSRTTVEDFCMKIHKNLIKEFKYALVWGLSVKHNPQKVGKDHTLEDEDVIQIVKK
notes: human DRG1, cDNA from a commercially available product; also called HsaDRG1; HsaDRG1-His
Regarding B1, in assay [3], the binding result is listed as “binds”.

For the origin of these results see paper PMC9256742, “Structure and function of cancer-related developmentally regulated GTP-binding protein 1 (DRG1) is conserved between sponges and humans” (Scientific Reports, 2022).
